# Experimental data taken from PMC9077843.
# B1: B3GNT5 (β1,3-N-acetylglucosaminyltransferase V): 4NQ (protein)
# parent chain: MRMLVSGRRVKKWQLIIQLFATCFLASLMFFWEPIDNHIVSHMKSYSYRYLINSYDFVNDTLSLKHTSAGPRYQYLINHKEKCQAQDVLLLLFVKTAPENYDRRSGIRRTWGNENYVRSQLNANIKTLFALGTPNPLEGEELQRKLAWEDQRYNDIIQQDFVDSFYNLTLKLLMQFSWANTYCPHAKFLMTADDDIFIHMPNLIEYLQSLEQIGVQDFWIGRVHRGAPPIRDKSSKYYVSYEMYQWPAYPDYTAGAAYVISGDVAAKVYEASQTLNSSLYIDDVFMGLCANKIGIVPQDHVFFSGEGKTPYHPCIYEKMMTSHGHLEDLQDLWKNATDPKVKTISKGFFGQIYCRLMKIILLCKISYVDTYPCRAAFI
# B2: B3GNT5 (β1,3-N-acetylglucosaminyltransferase V): tunicamycin (TM, 2.5 μg/mL, 24 h) (protein)
# parent chain: B1 parent chain
# Key:
# Western blot, HEK293T = details: glycan lost; control: B3GNT5-WT-Flag
# [1] = Western blot, MDA-MB231 and BT549, B3GNT5-WT-mcherry; details: glycan lost; control: untreated
Protein,"expression_or_secretion (Western blot, HEK293T)",expression_or_secretion [1]
B1,decreases,
B2,,decreases
